Data: patent US20250154275A1 (SHANGHAI JUNSHI BIOSCIENCES, published 2025)
Residue numbers refer to the chain shown, from its start.

B1: bispecific antibody molecule TZT6 (bispecific antibody, human IgG4 S228P, kappa)
heavy: QVQLVQSGAEVKKPGSSVKVSCKASGYAFSYSWINWVRQAPGQGLEWMGRIFPGDGDTDYNGKFKGRVTITADKSTSTAYMELSSLRSEDTAVYYCARNVFDGYWLVYWGQGTLVTVSSASTKGPSVFPLAPCSRSTSESTAALGCLVKDYFPEPVTVSWNSGALTSGVHTFPAVLQSSGLYSLSSVVTVPSSSLGTKTYTCNVDHKPSNTKVDKRVESKYGPPCPPCPAPEFLGGPSVFLFPPKPKDTLMISRTPEVTCVVVDVSQEDPEVQFNWYVDGVEVHNAKTKPREEQFNSTYRVVSVLTVLHQDWLNGKEYKCKVSNKGLPSSIEKTISKAKGQPREPQVYTLPPCQEEMTKNQVSLWCLVKGFYPSDIAVEWESNGQPENNYKTTPPVLDSDGSFFLYSRLTVDKSRWQEGNVFSCSVMHEALHNHYTQKSLSLSLGK
light: DIVMTQTPLSLPVTPGEPASISCRSSKSLLHSNGITYLYWYLQKPGQSPQLLIYQMSNLVSGVPDRFSGSGSGTDFTLKISRVEAEDVGVYYCAQNLELPYTFGGGTKVEIKRTVAAPSVFIFPPSDEQLKSGTASVVCLLNNFYPREAKVQWKVDNALQSGNSQESVTEQDSKDSTYSLSSTLTLSKADYEKHKVYACEVTHQGLSSPVTKSFNRGEC
chain: QAVVTQEPSLTVSPGGTVTLTCRSSTGAVTTSNYANWVQQKPGQAPRGLIGGTNKRAPGTPARFSGSLLGGKAALTLSGVQPEDEAEYYCALWYSNLWVFGCGTKLTVLGGGGSGGGGSGGGGSGGGGSEVQLVESGGGLVQPGGSLKLSCAASGFTFSTYAMNWVRQAPGKCLEWVGRIRSKYNNYATYYADSVKDRFTISRDDSKNSLYLQMNSLKTEDTAVYYCVRHGNFGNSYVSWFAYWGQGTLVTVSSGGGGSGGGGSESKYGPPCPPCPAPEFLGGPSVFLFPPKPKDTLMISRTPEVTCVVVDVSQEDPEVQFNWYVDGVEVHNAKTKPREEQFNSTYRVVSVLTVLHQDWLNGKEYKCKVSNKGLPSSIEKTISKAKGQPREPQVCTLPPSQEEMTKNQVSLSCAVKGFYPSDIAVEWESNGQPENNYKTTPPVLDSDGSFFLVSRLTVDKSRWQEGNVFSCSVMHEALHNRFTQKSLSLSLGK
notes: also called anti-CD3/CD20 bispecific antibody TZT6
B2: bispecific antibody molecule TZT7 (bispecific antibody, human IgG4 S228P, kappa)
heavy: B1 heavy with Y348C, C353S, W365S, L367A, Y406V, H434R, Y435F
light: B1 light
chain: QVQLVQSGAEVKKPGSSVKVSCKASGYAFSYSWINWVRQAPGQGLEWMGRIFPGDGDTDYNGKFKGRVTITADKSTSTAYMELSSLRSEDTAVYYCARNVFDGYWLVYWGQGTLVTVSSASTKGPSVFPLAPCSRSTSESTAALGCLVKDYFPEPVTVSWNSGALTSGVHTFPAVLQSSGLYSLSSVVTVPSSSLGTKTYTCNVDHKPSNTKVDKRVASGGGGSGGGGSQAVVTQEPSLTVSPGGTVTLTCRSSTGAVTTSNYANWVQQKPGQAPRGLIGGTNKRAPGTPARFSGSLLGGKAALTLSGVQPEDEAEYYCALWYSNLWVFGCGTKLTVLGGGGSGGGGSGGGGSGGGGSEVQLVESGGGLVQPGGSLKLSCAASGFTFSTYAMNWVRQAPGKCLEWVGRIRSKYNNYATYYADSVKDRFTISRDDSKNSLYLQMNSLKTEDTAVYYCVRHGNFGNSYVSWFAYWGQGTLVTVSSGGGGSGGGGSESKYGPPCPPCPAPEFLGGPSVFLFPPKPKDTLMISRTPEVTCVVVDVSQEDPEVQFNWYVDGVEVHNAKTKPREEQFNSTYRVVSVLTVLHQDWLNGKEYKCKVSNKGLPSSIEKTISKAKGQPREPQVYTLPPCQEEMTKNQVSLWCLVKGFYPSDIAVEWESNGQPENNYKTTPPVLDSDGSFFLYSRLTVDKSRWQEGNVFSCSVMHEALHNHYTQKSLSLSLGK
notes: IgG4 Fc (G4 FC in the vector's name); also called anti-CD3/CD20 bispecific antibody TZT7
B3: JSCD3 (antibody, human IgG4 S228P, kappa, V domains shown)
VH: EVQLVESGGGLVQPGGSLKLSCAASGFTFSTYAMNWVRQAPGKGLEWVGRIRSKYNNYATYYADSVKDRFTISRDDSKNSLYLQMNSLKTEDTAVYYCVRHGNFGNSYVSWFAYWGQGTLVTVSS
VL: QAVVTQEPSLTVSPGGTVTLTCRSSTGAVTTSNYANWVQQKPGQAPRGLIGGTNKRAPGTPARFSGSLLGGKAALTLSGVQPEDEAEYYCALWYSNLWVFGGGTKLTVLR
notes: humanized from murine SP34; also called humanized anti-CD3 antibody JSCD3; positive control

Tests used:
[1] = molecular target: T1, human CD3 on the surface of Jurkat cells (human, UniProt P07766 23-207; P04234 22-171; P09693 23-182); assay: flow cytometry on Jurkat cells (CD3-positive), MFI dose curve
T1 construct: whole, on cells

[2] = molecular target: T2, CD20 on the surface of Raji cells (human, UniProt P11836 1-297); assay: flow cytometry on Raji cells (CD20 positive), MFI dose curve
T2 construct: whole, on cells; Raji cells are described as human B lymphoma cells, CD20 positive; also called human CD20
T2 sequence (looked up): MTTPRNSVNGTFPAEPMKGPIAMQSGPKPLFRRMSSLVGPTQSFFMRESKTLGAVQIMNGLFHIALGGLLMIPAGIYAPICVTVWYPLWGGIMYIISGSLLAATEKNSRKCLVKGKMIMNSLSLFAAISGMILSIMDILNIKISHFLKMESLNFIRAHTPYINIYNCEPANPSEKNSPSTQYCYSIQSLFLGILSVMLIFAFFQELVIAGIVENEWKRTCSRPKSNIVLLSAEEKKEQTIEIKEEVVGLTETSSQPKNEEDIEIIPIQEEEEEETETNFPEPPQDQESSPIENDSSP

[3] = molecular target: T2, CD20 on the surface of Raji cells; assay: flow cytometry on Raji cells (CD20 positive), fluorescent secondary antibody, µg/mL is the unit of the axis; fit value of a flat curve
[4] = molecular target: T3, cynomolgus monkey CD3e overexpressed on the surface of CHO cells (cynomolgus monkey, UniProt Q95LI5 22-198); assay: flow cytometry on CHO cells overexpressing cynomolgus monkey CD3e
T3 construct: whole, on cells; also called CHO Cyno CD3e cells

[5] = molecular target: T4, recombinant human CD3ε (Novoprotein, C578) (human, UniProt P07766 23-126); assay: ELISA, plate coated with recombinant human CD3ε, anti-human IgG4 Fc-HRP detection
T4 construct: Bought protein coated on the ELISA plate

[6] = molecular target: T3, cynomolgus monkey CD3e overexpressed on …; assay: flow cytometry on CHO cells overexpressing cynomolgus monkey CD3e, fluorescent secondary antibody

T1 sequence (P07766 23-207, chain 1 of 3): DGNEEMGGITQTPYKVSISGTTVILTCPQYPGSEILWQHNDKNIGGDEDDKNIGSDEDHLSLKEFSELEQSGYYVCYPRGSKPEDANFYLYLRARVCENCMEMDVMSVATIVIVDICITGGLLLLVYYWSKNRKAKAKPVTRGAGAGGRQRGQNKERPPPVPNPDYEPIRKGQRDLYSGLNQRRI
T1 sequence (P04234 22-171, chain 2 of 3): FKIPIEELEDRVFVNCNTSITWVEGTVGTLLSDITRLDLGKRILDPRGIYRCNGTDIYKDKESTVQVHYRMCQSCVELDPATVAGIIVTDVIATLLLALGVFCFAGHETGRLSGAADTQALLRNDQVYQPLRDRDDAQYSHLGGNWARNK
T1 sequence (P09693 23-182, chain 3 of 3): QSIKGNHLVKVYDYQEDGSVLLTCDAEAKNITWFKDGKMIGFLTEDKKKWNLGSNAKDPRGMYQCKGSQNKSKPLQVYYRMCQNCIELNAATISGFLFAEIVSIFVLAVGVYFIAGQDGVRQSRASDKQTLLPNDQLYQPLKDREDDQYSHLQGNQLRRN
T3 sequence (Q95LI5 22-198): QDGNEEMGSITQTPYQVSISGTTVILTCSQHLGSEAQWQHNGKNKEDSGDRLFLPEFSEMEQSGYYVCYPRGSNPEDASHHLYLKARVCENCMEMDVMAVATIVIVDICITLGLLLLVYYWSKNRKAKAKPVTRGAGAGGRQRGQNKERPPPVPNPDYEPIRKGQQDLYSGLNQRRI
T4 sequence (P07766 23-126 limits assumed): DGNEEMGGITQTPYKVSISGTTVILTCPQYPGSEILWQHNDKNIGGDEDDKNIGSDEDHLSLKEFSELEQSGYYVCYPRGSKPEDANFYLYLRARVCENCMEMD

Row | Molecule | EC50 [1] [µg/mL] | EC50 [2] [µg/mL] | EC50 [3] [µg/mL] | binding result [4] | EC50 [5] [µg/mL] | binding result [6]
1 | REGN1979 (Regeneron Pharmaceuticals) (bispecific antibody) | 4.7 | 30.1 |  |  |  | 
2 | Anti-KLH IgG4 (antibody) |  |  | 52 |  |  | 
3 | B1 | 4.44 | 3.67 |  | binds | 0.0214 | 
4 | B2 | 26.6 | 0.515 |  | binds | 0.0856 | 
5 | B3 |  |  |  |  |  | binds
